Laboratory results taken from publication PMC3392930 (The Journal of Cell Biology, 2012).
Read-outs that look alike come from different tables or passages of the source.

Tests used:
[1] = target: S-tagged RSP3_(1–160) (Chlamydomonas reinhardtii) (UniProt P12759); assay: pull-down
[2] = target: the molecule itself; assay: cross-linking
[3] = target: the molecule itself; assay: cross-linking; remark: listed apart in the source

Molecule: His-tagged LC8 (natural protein)
- stoichiometry N (LC8 per RSP3 (1–160)) [1]: 3

B1: RSP3_(1–170)-Cys (domain or fragment, Chlamydomonas reinhardtii, UniProt P12759 1-170, looked up)
chain: MVQAKAQQQLYTHAAEPKAVQQRRAKYREDETTQTLPTANIMFDRRVVRGNTYAARILPADATQTQTKGPSPASTKKRTTRTLPPRTPEAVDGRRHIDIQTDVYLEELTDTVPEADTSTQTDAFLDRPPTPLFVPQKTGTDAITQIENGDLFDFDFEVEPILEVLVGKVL
- stoichiometry N [2]: 2

B2: RSP3_(1–170)-HAHis (domain or fragment, Chlamydomonas reinhardtii, UniProt P12759 1-170, looked up)
chain: B1 chain
- stoichiometry N [3]: 2
